The values that follow come from the nanobody polyreactivity screen of Harvey et al. (2022).

This data set can be described thus: yeast display, Sf9 membrane polyspecificity reagent, FACS + sequencing; frameworks hold sequencing errors. The gist of the method: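 Synthetic nanobody libraries on Saccharomyces cerevisiae BJ5465 were galactose-induced for 36–48 hours, stained 1 hour at 4 °C with 10% biotinylated, detergent-solubilized Sf9 membrane reagent and enriched on streptavidin microbeads. FACS then separated cells into low and high (top ~1%) gates by anti-HA (expression) and streptavidin (reagent binding) fluorescence. Genes were colony-PCR amplified, MiSeq 2 × 250 sequenced and CDR-length filtered. A clone's polyreactivity label is that of its gate of origin.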
Regarding “QVQLVESGGGLVQAGGSLRLSCAASGSIFPLYDMGWSRQATGKQSELVASITSGDTTNYADSVKGRFTISRDNAKNTVYLQMISLNAEDTAVYYCATDTPTDRYAAYPNDQYYYWGQGTQVTVSS”, the “polyreactivity (PSR sort gate)” value was “low polyreactivity”. Take “QVQLVESGGGLVQAGGSLRLSCAASGSIFPPNAMGWYRQAPGKERELVAGISQSGGSTYYADSVKGRFTISRDNAKNTVYLQMNSLKPEDTAVYYCARRSRVGYPLDSWGQGTQVTVSS”: the “polyreactivity (PSR sort gate)” value is “high polyreactivity”. Regarding “QVQLVESGGGLVQAGGSLRLSCAASGSIFPPYAMGWYRQAPGKERELVASISNSGGSTYYADSVKGRFTISRDNAKNTVYLQMNSLKPEDTAVYYCAAYAVVSPSFTYGYWGQGTQVTVSS”, the “polyreactivity (PSR sort gate)” value is on record as “high polyreactivity”. With “QVQLVESGGGLVQAGGSLRLSCAASGSIFPQYAMGWYRQAPGKERELVAGISGSGGGTYYADSVKGRFTISRDNAKNTVYLQMNSLKPEDTAVYDCYDYWGQGTQVTVSS”, the “polyreactivity (PSR sort gate)” value was “low polyreactivity”. Consider “QVQLVESGGGLVQAGGSLRLSCAASGSIFPRNAMGWYRQAPGKERELVAGISSGGSTNYADSVKGRFTISRDNAKNTVYLQMNSLNPEDTAVYYCAARQWIRNLGFGYSIYNYWGQGTQVTVSS”, for which the “polyreactivity (PSR sort gate)” value is “high polyreactivity”. Consider “QVQLVESGGGLVQAGGSLRLSCAASGSIFPRYAMGWYRQAPGKERELVAAISWSGGSTYYADSVKGRFTISRDNAKNTFYLQMNSLKPEDTAVYYCAALSKHVQVAYDPWGQGTQVTVSS”, for which the “polyreactivity (PSR sort gate)” value is “high polyreactivity”. Regarding “QVQLVESGGGLVQAGGSLRLSCAASGSIFPRYAMGWYRQAPGKERELVAAITGSGSSTYYADSVKGRFTISRDNAKNTVYLQMNSLKPEDTAVYYCAALYGPGREYDYWGQGTQVTVSS”, the “polyreactivity (PSR sort gate)” value is given as “low polyreactivity”. Regarding “QVQLVESGGGLVQAGGSLRLSCAASGSIFPSNVMGWYRQAPGKERELVAAISTTGSTYYADSVKGRFTISRDNAKNTVYLQMNSLKTEDTAVYDCAAEYWSYAHGGQLYGYDYWGQGTQVTVSS”, the “polyreactivity (PSR sort gate)” value was “low polyreactivity”. In the case of “QVQLVESGGGLVQAGGSLRLSCAASGSIFPVYAMGWYRPAPGKERELVAAISWIGGGTYYADSVKGRFTISRDNAKNTVYLQKHSLKPEDTAVYDCAAVPYTSEYDYWGQGTEVTVSS”, the “polyreactivity (PSR sort gate)” value is listed as “high polyreactivity”. On to “QVQLVESGGGLVQAGGSLRLSCAASGSIFPVYAMGWYRQAPGKEREFVARIRFSGGRTYYADSVKGRFTISRDNAKNTVYLQMNSLKPEDTAVYYCAKAQYRGRYGYWGQGTQVTVSS”, for which the “polyreactivity (PSR sort gate)” value is “high polyreactivity”. As to “QVQLVESGGGLVQAGGSLRLSCAASGSIFPVYAMGWYRQAPGKERELVATIRSGGARTYYADSVKGRFTISRDNAKNTVYLQMNSLKPEDTAVYYCAVDQSRWQARYYYWGQGTQVTVSS”, the “polyreactivity (PSR sort gate)” value is “high polyreactivity”.

In the case of “QVQLVESGGGLVQAGGSLRLSCAASGSIFPVYTMGWYRQAPGKEREFVATITISGAITYYADSVKGRFTISRDNAKNSVYLQMNSLKPEDTAVYYCNTGPISYPANDYWGQGTQVTVSS”, the “polyreactivity (PSR sort gate)” value was “low polyreactivity”.

Turning to “QVQLVESGGGLVQAGGSLRLSCAASGSIFPVYTMGWYRQAPWKERELVAAITKTGGSTYYADSVKGRFTISRDNAKNTVYLQMNILIPEDTAVYYCAKPATYYELDYWGQGTQVNVSS”, the “polyreactivity (PSR sort gate)” value is reported as “low polyreactivity”. With “QVQLVESGGGLVQAGGSLRLSCAASGSIFPWNAMGWYRQAPGKERELVAAISRGGSTNYADSVKGRFTISRDNAKNTVYLQMNSLKPEDTAVYYCAVYYYSYHWGRGYDYWGQGTQVTVSS” the entry was “high polyreactivity”. In the case of “QVQLVESGGGLVQAGGSLRLSCAASGSIFPYNAMGWYRQAPGKERELVATISSGGSTNYADSVKGRFTISRDNAKNTVYLQMKSLKPADTAVYYCAADVIVFFSAPNYWGDIEYGYWGQGTQVTVSS”, the “polyreactivity (PSR sort gate)” value is given as “low polyreactivity”. For “QVQLVESGGGLVQAGGSLRLSCAASGSIFPYNAMGWYRQAPGKERELVATISSGGSTNYADSVKGRFTISRDNAKNTVYLQMNSLKPEDTAVYYCAADVIVFYYAPNYWVDIEYGYWGQGTQVTVSS” the value was “low polyreactivity”; for “QVQLVESGGGLVQAGGSLRLSCAASGSIFPYNAMGWYRQERGNERELVAAISISGGSTYYADSVKGRFTISRDNAKNTVYFQMNSLKPEDTAVYYCAARQTLSSAFDYWGQGTQVTVSS”, “low polyreactivity”. With “QVQLVESGGGLVQAGGSLRLSCAASGSIFPYVNAMGWYRQAPGKERELVASIPGGGGTKYADSVKGRFTISRDNAKNTVYLQMNSLKPEDTAVYYCNATSGNPASTARMNYWGQGTQVTVSS”, the “polyreactivity (PSR sort gate)” value is recorded as “low polyreactivity”. In the case of “QVQLVESGGGLVQAGGSLRLSCAASGSIFPYYAMGWYRQAPGKERELVAAISDSGDSTYYADSVKGRFTISRDNAKNTVYLQMNSLKPEDTAVYYCAADQTSSYYDPWGDYWGQGTQVTVSS”, the “polyreactivity (PSR sort gate)” value is “low polyreactivity”. “QVQLVESGGGLVQAGGSLRLSCAASGSIFPYYAMGWYRQAPGKERELVAAISGSGGSTYYADSVKGRFTISRDNAKNTVYLQLNSLKPVDTAVYYCATADVYVYWYTSTDDYWGQGTQVTVSS”: the “polyreactivity (PSR sort gate)” value is on record as “low polyreactivity”. With “QVQLVESGGGLVQAGGSLRLSCAASGSIFPYYAMGWYRQAPGKERELVAAISWSGTSTYYADSLKGRFTISRDNAKNTVYLQMNSLKPEDTAVYYCAASAVGTNHYGYWNESDYWGQGTQVTVSS” the entry was “low polyreactivity”. In the case of “QVQLVESGGGLVQAGGSLRLSCAASGSIFPYYAMGWYRQAPGQEREFVASISSVTSTYADSVKGRFTISRDNAKNTVYLQMNSQKPEDPAVYYCAADRAYSWYSVSRYNYWGQGTQVTVSS”, the “polyreactivity (PSR sort gate)” value is “low polyreactivity”. As to “QVQLVESGGGLVQAGGSLRLSCAASGSIFPYYTMGWYRQAPGKERELVAAINYSGASTYYADSVKGRFTISRDNAKNTVYLQMNSLKPEDTAVYYCAADYPPLYRKYVYWGQGTQVTVSS”, the “polyreactivity (PSR sort gate)” value is on record as “low polyreactivity”.

On to “QVQLVESGGGLVQAGGSLRLSCAASGSIFPYYVMGWYRQAPGKERELVAAISTSDGSTYADSVKGRFTISRDNAKNTVYLQMNSLKPEDTAVYYCAVANVYYEGYDYWGQGTQVTVSS”, for which the “polyreactivity (PSR sort gate)” value is reported as “low polyreactivity”.

For the sequence “QVQLVESGGGLVQAGGSLRLSCAASGSIFQAYVMGWYRQAPGKERELVATIDRRGGITYYADSVKGRFTISRDNAKNTVYLQMNSLKPEDTAVYYCATRTRLAQYSRGRYRYDYWGQGTQVTVSS”, the “polyreactivity (PSR sort gate)” value was “high polyreactivity”. “QVQLVESGGGLVQAGGSLRLSCAASGSIFQFYTMGWYRQAPGKERELVAAISSGGTRRYYADSVKGRFTISRDNAKNTVYLQMNSLKPEDTAVYYCAAPWSSSWSGVRTRMGYWGQGTQVTVSS”: the “polyreactivity (PSR sort gate)” value was “high polyreactivity”. In the case of “QVQLVESGGGLVQAGGSLRLSCAASGSIFQGNAMGWYRQAPGKERDLVAAISGGDSTNYADSVKGRFTISRDNAKNNVYLQMNSLKPEDTAVFYCNALSHWAPASYEYDYWGQGTQVTVSS”, the “polyreactivity (PSR sort gate)” value is “low polyreactivity”. On to “QVQLVESGGGLVQAGGSLRLSCAASGSIFQGNVMGWYRPAPGKERELVAAISYSGDSTYYADSVKGRFTISRDNAKNTVYLQMNRLKPEDSAVYYCYAYRNRYGYRTSSRRYGYWGQGTQVTVSS”, for which the “polyreactivity (PSR sort gate)” value is “high polyreactivity”. Regarding “QVQLVESGGGLVQAGGSLRLSCAASGSIFQGYAMGWYRKAPGKERELVAAITSSGGSTRYADSVKGRFTISRDNAKNTVYLQMNSLKPEDTAVYYCAARYKWPYDYWGQGTQVTVSS”, the “polyreactivity (PSR sort gate)” value is reported as “high polyreactivity”.

As for “QVQLVESGGGLVQAGGSLRLSCAASGSIFQHYAMGWYRQAPGKEREFVAAISGRGGGTYYADSVKGRFTISRDNAKNTVYLQMNSLKPEDTAVYYCAADYRGSYWRYYYWGQGTQVTVSS”, the “polyreactivity (PSR sort gate)” value was “high polyreactivity”.

In the case of “QVQLVESGGGLVQAGGSLRLSCAASGSIFQIVYAMGWYRQAPGKERELVAAISRGGSTYYADSVKGRFTISRDNAKNTVYLQMNSLKPEDTAVYYCAADIVELSPRGVYHFDYWGQGTQVTVSS”, the “polyreactivity (PSR sort gate)” value was “high polyreactivity”. For “QVQLVESGGGLVQAGGSLRLSCAASGSIFQKYAMGWYRPAPGKERELVAAITSSGSTNYADSVKGRFTISRDNAKNTVYLQMNSLKPEDTAVYYCAADRYAGYYSWYYPLWSSKDDYWGQGTQVTVSS” the value was “low polyreactivity”; for “QVQLVESGGGLVQAGGSLRLSCAASGSIFQKYTMGWYRQAPGKERELVAAITRSGGSTYYADSVKGRFTISRDNAKNTVYLQMNSLKPEDSAVYYCNKRYIPWAYDYWGQGTQVTVSS”, “high polyreactivity”.

Turning to “QVQLVESGGGLVQAGGSLRLSCAASGSIFQQYDRGWYRQAPGKDREFVAAISSSGGSTYYADSVKGRFTISRDNAKNTDYLQMKSLKAEDSAVYYCAVDTIGYTYVDYLHGSGEFGYWGQGTQVTVSS”, the “polyreactivity (PSR sort gate)” value is given as “low polyreactivity”. On to “QVQLVESGGGLVQAGGSLRLSCAASGSIFQRNAIGWSRQAPGKERELVAAITTTGGITHYADSVKGRFTISRDNAKNTVYLQMNSLKPEDTAVYYCAASNEVPWRFPDDYWGQGTQVTVSS”, for which the “polyreactivity (PSR sort gate)” value was “low polyreactivity”.

For the sequence “QVQLVESGGGLVQAGGSLRLSCAASGSIFQRNAMGWYRQAPGKERELVASISFSDGTTYYADSVKGRCTISRDNAKNTVYLQMNSLKPEDTAVYYCAKKAIVSDQWDKYDYWGQGTQVTVSS”, the “polyreactivity (PSR sort gate)” value was “low polyreactivity”. In the case of “QVQLVESGGGLVQAGGSLRLSCAASGSIFQVNAMGWYRQAPGKERELVASITTSGGSTYYADSVKGRFTISRDNAKNTVYLQMNSLKPEDTAVYYCAADHWSQDYDYWGQGTQVTVSS”, the “polyreactivity (PSR sort gate)” value is given as “low polyreactivity”.

In the case of “QVQLVESGGGLVQAGGSLRLSCAASGSIFQWYAMGWYRQAPGKERELVAVISRGGRTNYADSVKGRFTISRDNAKNTVYLQMNSLKPEDTAVYYCAAAVWFERGFSYRWRYGYWGQGTQVTVSS”, the “polyreactivity (PSR sort gate)” value is on record as “high polyreactivity”.

Consider “QVQLVESGGGLVQAGGSLRLSCAASGSIFQYNAMGGSRQSPGEDRELVAAISRSGGSTYYADSVKGRFTNSRDNAKNTVYLQMNSLKPEDTAVYYCNAVLGYYSPYDYWVQGTQVTVSS”, for which the “polyreactivity (PSR sort gate)” value is “low polyreactivity”. Turning to “QVQLVESGGGLVQAGGSLRLSCAASGSIFQYNAMGWYRQAPGKEREFVAAITRGGGTYYADSVKGRFTISRDNAKKTVYLQMNSLKPEDTAVYYCAAQSRTSYRFNYWGQGTQVTVSS”, the “polyreactivity (PSR sort gate)” value is recorded as “high polyreactivity”.
